According to patent publication US20220235117A1:

Experiments:
[1] = molecular target: hepatitis B virus surface antigen (HBsAg) (hepatitis B virus); assay: SPR, Biacore 3000, HBsAg on CM5 chip, antibody as analyte, pH 7.4
[2] = molecular target: hepatitis B virus surface antigen (HBsAg) (hepatitis B virus); assay: ELISA, commercial HBsAg plate, well held 30 min in PBS pH 6.0 after binding, GAH-HRP secondary antibody, OD(450/630)
[3] = molecular target: hepatitis B virus surface antigen (HBsAg) (hepatitis B virus); assay: ELISA, commercial HBsAg plate, well held 30 min in PBS pH 7.4 after binding, GAH-HRP secondary antibody, OD(450/630)
[4] = molecular target: hepatitis B virus surface antigen (HBsAg) (hepatitis B virus); assay: ELISA on commercial HBsAg plate, ratio of EC50 at pH 6.0 to pH 7.4
[5] = molecular target: hepatitis B virus surface antigen (HBsAg) (hepatitis B virus); assay: ELISA on commercial HBsAg plate, pH 6.0
[6] = molecular target: hepatitis B virus surface antigen (HBsAg) (hepatitis B virus); assay: ELISA on commercial HBsAg plate, pH 7.4

B1: anti-HBV humanized antibody M1D (antibody, V domains shown)
VH: QVQLQESGPGLVKPSETLSLTCTVSGGSITSNFWSWIRQPPGKGLEWIGYISGSGTYTDYNPSLKSRVTISVDTSKNQFSLKLSSVTAADTAVYYCARSHDYGSNDYAFDFWGQGTTVTVSS
VL: DIQMTQSPSSLSASVGDRVTITCRATQDISSSLNWYQQKPGKAPKLLIYYANRLQSGVPSRFSGSGSGTDFTLTISSLQPEDFATYYCQQYHSLPLTFGGGTKVEIK
- Kd [1]: 0.534 nM
- EC50 (read off the curve) [2]: 0.01 µg/mL
- EC50 (read off the curve) [3]: 0.01 µg/mL

B2: A42-23 (antibody, human IgG1, kappa, V domains shown)
VH: QVQLQESGPGLVKPSETLSLTCTVSGGSITHNFWSWIRQPPGKGLEWIGYISGYDTYTDYNPSLKSRVTISVDTSKNQFSLKLSSVTAADTAVYYCARSHDYGHHDYAFDFWGQGTTVTVSS
VL: DIQMTQSPSSLSASVGDRVTITCRATQDIHHSLNWYQQKPGKAPKLLIYYANRLQSGVPSRFSGSGSGTDFTLTISSLQPEDFATYYCQQYHYLPLTFGGGTKVEIKR
- EC50(pH 6.0)/EC50(pH 7.4) [4]: 27.2
- EC50 [5]: 0.345 µg/mL
- EC50 [6]: 0.0127 µg/mL
